Results published in patent US20240424167A1.
One block for each binder: values may come before it. No end group written: not given here.

Key:
[1] = biological target: type III collagen of the SIS membrane; assay: CLSM, SIS membrane soaked in 200 µM chimeric peptide solution (H-pSIS)
[2] = biological target: type I collagen of the SIS membrane; assay: as above

B2: P9 polypeptide (TKKTLRT+linker-1+Hst1) (peptide)
peptide: TKKTLRTGGGGSGGGGSSHREFPFYGDYGS
modifications: also: fluorescent label FITC or rhodamine B (paragraphs differ), position not given here
fluorescent area of the SIS membrane [2]: > 85%

B3: P10 polypeptide (TKKTLRT+linker-1+JH8194) (peptide)
peptide: TKKTLRTGGGGSGGGGSKRLFRRWQWRMKKY
modifications: also: fluorescent label FITC or rhodamine B (paragraphs differ), position not given here
fluorescent area of the SIS membrane [2]: > 85%

Results, then the binder that gave them:

fluorescent area of the SIS membrane [1]: > 85%
B1: P12 polypeptide (KELNLVY+linker-1+JH8194) (peptide)
peptide: KELNLVYGGGGSGGGGSKRLFRRWQWRMKKY
modifications: also: fluorescent label rhodamine B or FITC (paragraphs differ), position not given here

fluorescent area of the SIS membrane [1]: > 85%
B4: P11 polypeptide (KELNLVY+linker-1+Hst1) (peptide)
peptide: KELNLVYGGGGSGGGGSSHREFPFYGDYGS
modifications: also: fluorescent label rhodamine B or FITC (paragraphs differ), position not given here
